In patent US20260015399A1 (Boehringer Ingelheim, published 2026):
*1 amine or outer side, *2 acyl side, *3 side chain or, on linkers, in order; H or OH if unused. Side-chain parts run from the residue outwards. The star is where a group is joined. C18 diacid = O=C(O)CCCCCCCCCCCCCCCCC(=O)*; γGlu = O=C(O)[C@H](CCC(=O)[*:2])N[*:1]; Isovaleryl = CC(C)CC(=O)*; Ahx = NCCCCCC(=O)O

molecular target: T1, human NPY2 receptor (human, UniProt P49146 1-381); test: RLB: displacement of 125I-PYY(1-36) from hNPY2R membranes
T1 construct: whole, on cells; also called hNPY2-R; hNPY2R
T1 sequence (looked up): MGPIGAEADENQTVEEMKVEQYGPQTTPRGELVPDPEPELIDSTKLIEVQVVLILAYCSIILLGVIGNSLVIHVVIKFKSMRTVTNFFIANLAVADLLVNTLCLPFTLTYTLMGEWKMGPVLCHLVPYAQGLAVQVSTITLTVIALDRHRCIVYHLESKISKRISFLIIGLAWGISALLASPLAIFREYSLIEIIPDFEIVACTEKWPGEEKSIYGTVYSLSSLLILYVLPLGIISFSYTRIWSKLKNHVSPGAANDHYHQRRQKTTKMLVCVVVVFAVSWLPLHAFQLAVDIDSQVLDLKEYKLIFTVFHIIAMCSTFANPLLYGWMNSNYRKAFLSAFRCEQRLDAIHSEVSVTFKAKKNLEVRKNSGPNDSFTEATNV

| Binder | Ki [nM] |
| --- | --- |
| Isovaleryl-APEK([Ahx-γGlu-C18 diacid])PEEDALPEEIQRYYVSLRHYYNWLTRQRY-NH2 (SMILES CC[C@H](C)[C@H](NC(=O)[C@H](CCC(=O)O)NC(=O)[C@H](CCC(=O)O)NC(=O)[C@@H]1CCCN1C(=O)[C@H](CC(C)C)NC(=O)[C@H](C)NC(=O)[C@H](CC(=O)O)NC(=O)[C@H](CCC(=O)O)NC(=O)[C@H](CCC(=O)O)NC(=O)[C@@H]1CCCN1C(=O)[C@H](CCCCNC(=O)CCCCCNC(=O)CC[C@H](NC(=O)CCCCCCCCCCCCCCCCC(=O)O)C(=O)O)NC(=O)[C@H](CCC(=O)O)NC(=O)[C@@H]1CCCN1C(=O)[C@H](C)NC(=O)CC(C)C)C(=O)N[C@@H](CCC(N)=O)C(=O)N[C@@H](CCCNC(=N)N)C(=O)N[C@@H](Cc1ccc(O)cc1)C(=O)N[C@@H](Cc1ccc(O)cc1)C(=O)N[C@H](C(=O)N[C@@H](CO)C(=O)N[C@@H](CC(C)C)C(=O)N[C@@H](CCCNC(=N)N)C(=O)N[C@@H](Cc1c[nH]cn1)C(=O)N[C@@H](Cc1ccc(O)cc1)C(=O)N[C@@H](Cc1ccc(O)cc1)C(=O)N[C@@H](CC(N)=O)C(=O)N[C@@H](Cc1c[nH]c2ccccc12)C(=O)N[C@@H](CC(C)C)C(=O)N[C@H](C(=O)N[C@@H](CCCNC(=N)N)C(=O)N[C@@H](CCC(N)=O)C(=O)N[C@@H](CCCNC(=N)N)C(=O)N[C@@H](Cc1ccc(O)cc1)C(N)=O)[C@@H](C)O)C(C)C) [Compound 142] | 3.97 |
| Isovaleryl-APEK([Ahx-γGlu-C18 diacid])PEEDSTPEELQRYYVSLRHYYNWLTRQRY-NH2 (SMILES CC(C)CC(=O)N[C@@H](C)C(=O)N1CCC[C@H]1C(=O)N[C@@H](CCC(=O)O)C(=O)N[C@@H](CCCCNC(=O)CCCCCNC(=O)CC[C@H](NC(=O)CCCCCCCCCCCCCCCCC(=O)O)C(=O)O)C(=O)N1CCC[C@H]1C(=O)N[C@@H](CCC(=O)O)C(=O)N[C@@H](CCC(=O)O)C(=O)N[C@@H](CC(=O)O)C(=O)N[C@@H](CO)C(=O)N[C@H](C(=O)N1CCC[C@H]1C(=O)N[C@@H](CCC(=O)O)C(=O)N[C@@H](CCC(=O)O)C(=O)N[C@@H](CC(C)C)C(=O)N[C@@H](CCC(N)=O)C(=O)N[C@@H](CCCNC(=N)N)C(=O)N[C@@H](Cc1ccc(O)cc1)C(=O)N[C@@H](Cc1ccc(O)cc1)C(=O)N[C@H](C(=O)N[C@@H](CO)C(=O)N[C@@H](CC(C)C)C(=O)N[C@@H](CCCNC(=N)N)C(=O)N[C@@H](Cc1c[nH]cn1)C(=O)N[C@@H](Cc1ccc(O)cc1)C(=O)N[C@@H](Cc1ccc(O)cc1)C(=O)N[C@@H](CC(N)=O)C(=O)N[C@@H](Cc1c[nH]c2ccccc12)C(=O)N[C@@H](CC(C)C)C(=O)N[C@H](C(=O)N[C@@H](CCCNC(=N)N)C(=O)N[C@@H](CCC(N)=O)C(=O)N[C@@H](CCCNC(=N)N)C(=O)N[C@@H](Cc1ccc(O)cc1)C(N)=O)[C@@H](C)O)C(C)C)[C@@H](C)O) [Compound 143] | 3.42 |
| Isovaleryl-APEK([Ahx-γGlu-C18 diacid])PEEDQTPEELQRYYVSLRHYYNWLTRQRY-NH2 (SMILES CC(C)CC(=O)N[C@@H](C)C(=O)N1CCC[C@H]1C(=O)N[C@@H](CCC(=O)O)C(=O)N[C@@H](CCCCNC(=O)CCCCCNC(=O)CC[C@H](NC(=O)CCCCCCCCCCCCCCCCC(=O)O)C(=O)O)C(=O)N1CCC[C@H]1C(=O)N[C@@H](CCC(=O)O)C(=O)N[C@@H](CCC(=O)O)C(=O)N[C@@H](CC(=O)O)C(=O)N[C@@H](CCC(N)=O)C(=O)N[C@H](C(=O)N1CCC[C@H]1C(=O)N[C@@H](CCC(=O)O)C(=O)N[C@@H](CCC(=O)O)C(=O)N[C@@H](CC(C)C)C(=O)N[C@@H](CCC(N)=O)C(=O)N[C@@H](CCCNC(=N)N)C(=O)N[C@@H](Cc1ccc(O)cc1)C(=O)N[C@@H](Cc1ccc(O)cc1)C(=O)N[C@H](C(=O)N[C@@H](CO)C(=O)N[C@@H](CC(C)C)C(=O)N[C@@H](CCCNC(=N)N)C(=O)N[C@@H](Cc1c[nH]cn1)C(=O)N[C@@H](Cc1ccc(O)cc1)C(=O)N[C@@H](Cc1ccc(O)cc1)C(=O)N[C@@H](CC(N)=O)C(=O)N[C@@H](Cc1c[nH]c2ccccc12)C(=O)N[C@@H](CC(C)C)C(=O)N[C@H](C(=O)N[C@@H](CCCNC(=N)N)C(=O)N[C@@H](CCC(N)=O)C(=O)N[C@@H](CCCNC(=N)N)C(=O)N[C@@H](Cc1ccc(O)cc1)C(N)=O)[C@@H](C)O)C(C)C)[C@@H](C)O) [Compound 144] | 9.76 |
| Isovaleryl-APAK([Ahx-γGlu-C18 diacid])PEEDASPEESQRYYVSLRHYYNWLTRQRY-NH2 (SMILES CC(C)CC(=O)N[C@@H](C)C(=O)N1CCC[C@H]1C(=O)N[C@@H](C)C(=O)N[C@@H](CCCCNC(=O)CCCCCNC(=O)CC[C@H](NC(=O)CCCCCCCCCCCCCCCCC(=O)O)C(=O)O)C(=O)N1CCC[C@H]1C(=O)N[C@@H](CCC(=O)O)C(=O)N[C@@H](CCC(=O)O)C(=O)N[C@@H](CC(=O)O)C(=O)N[C@@H](C)C(=O)N[C@@H](CO)C(=O)N1CCC[C@H]1C(=O)N[C@@H](CCC(=O)O)C(=O)N[C@@H](CCC(=O)O)C(=O)N[C@@H](CO)C(=O)N[C@@H](CCC(N)=O)C(=O)N[C@@H](CCCNC(=N)N)C(=O)N[C@@H](Cc1ccc(O)cc1)C(=O)N[C@@H](Cc1ccc(O)cc1)C(=O)N[C@H](C(=O)N[C@@H](CO)C(=O)N[C@@H](CC(C)C)C(=O)N[C@@H](CCCNC(=N)N)C(=O)N[C@@H](Cc1c[nH]cn1)C(=O)N[C@@H](Cc1ccc(O)cc1)C(=O)N[C@@H](Cc1ccc(O)cc1)C(=O)N[C@@H](CC(N)=O)C(=O)N[C@@H](Cc1c[nH]c2ccccc12)C(=O)N[C@@H](CC(C)C)C(=O)N[C@H](C(=O)N[C@@H](CCCNC(=N)N)C(=O)N[C@@H](CCC(N)=O)C(=O)N[C@@H](CCCNC(=N)N)C(=O)N[C@@H](Cc1ccc(O)cc1)C(N)=O)[C@@H](C)O)C(C)C) [Compound 149] | 3.97 |
| Isovaleryl-APEK([Ahx-γGlu-C18 diacid])PEEDATPEELQRYYVTLRHYYNWLTRQRY-NH2 (SMILES CC(C)CC(=O)N[C@@H](C)C(=O)N1CCC[C@H]1C(=O)N[C@@H](CCC(=O)O)C(=O)N[C@@H](CCCCNC(=O)CCCCCNC(=O)CC[C@H](NC(=O)CCCCCCCCCCCCCCCCC(=O)O)C(=O)O)C(=O)N1CCC[C@H]1C(=O)N[C@@H](CCC(=O)O)C(=O)N[C@@H](CCC(=O)O)C(=O)N[C@@H](CC(=O)O)C(=O)N[C@@H](C)C(=O)N[C@H](C(=O)N1CCC[C@H]1C(=O)N[C@@H](CCC(=O)O)C(=O)N[C@@H](CCC(=O)O)C(=O)N[C@@H](CC(C)C)C(=O)N[C@@H](CCC(N)=O)C(=O)N[C@@H](CCCNC(=N)N)C(=O)N[C@@H](Cc1ccc(O)cc1)C(=O)N[C@@H](Cc1ccc(O)cc1)C(=O)N[C@H](C(=O)N[C@H](C(=O)N[C@@H](CC(C)C)C(=O)N[C@@H](CCCNC(=N)N)C(=O)N[C@@H](Cc1c[nH]cn1)C(=O)N[C@@H](Cc1ccc(O)cc1)C(=O)N[C@@H](Cc1ccc(O)cc1)C(=O)N[C@@H](CC(N)=O)C(=O)N[C@@H](Cc1c[nH]c2ccccc12)C(=O)N[C@@H](CC(C)C)C(=O)N[C@H](C(=O)N[C@@H](CCCNC(=N)N)C(=O)N[C@@H](CCC(N)=O)C(=O)N[C@@H](CCCNC(=N)N)C(=O)N[C@@H](Cc1ccc(O)cc1)C(N)=O)[C@@H](C)O)[C@@H](C)O)C(C)C)[C@@H](C)O) [Compound 148] | 2.85 |
